B1: lim-6 intron 4 probe 1 (dsDNA)
DNA 1: TACGATTTGCAAACAACAAACATTCCAGACAGAT
DNA 2: ATCTGTCTGGAATGTTTGTTGTTTGCAAATCGTA
B2: lim-6 intron 4 probe 2 (dsDNA)
DNA 1: CTGCTACCGTAGTGCTTTGTTGATTTAACACACA
DNA 2: TGTGTGTTAAATCAACAAAGCACTACGGTAGCAG

Legend:
[1] = target: T1, SOX-2;HMG-POP-1-FLAG (Caenorhabditis elegans;Caenorhabditis …, UniProt Q21305;Q10666 1-283;181-281, |); experiment: EMSA supershift; anti-FLAG; 20 mM Tris-HCl pH 8.0, 100 mM NaCl, 100 ug/mL BSA, 1 mM EDTA, 1 mM DTT, 0.1% NP-40; 20 min on ice (supershift 30 min at room temperature), 200 ng Cy5 probe; 6%; settings: protein: recombinant;recombinant; tags: N-terminal 6xHis, C-terminal HA (pSJ6094);N-terminal 6xHis, C-terminal FLAG (pSJ1107); copies: 1;1; label: Cy5 on forward strand; blunt
[2] = target: SOX-2;HMG-POP-1 (Caenorhabditis elegans;Caenorhabditis …, UniProt Q21305;Q10666 1-283;181-281, |); experiment: EMSA; SOX-2 125-500 nM added to HMG-POP-1; upper shift, most probably ternary complex; 20 mM Tris-HCl pH 8.0, 100 mM NaCl, 100 ug/mL BSA, 1 mM EDTA, 1 mM DTT, 0.1% NP-40; 20 min on ice (supershift 30 min at room temperature), 200 ng Cy5 probe; 6%; settings: protein: recombinant;recombinant; tags: N-terminal 6xHis, C-terminal HA (pSJ6094);N-terminal 6xHis (pSJ769); copies: 1;1; label: Cy5 on forward strand; blunt
[3] = target: T1, SOX-2;HMG-POP-1-FLAG; experiment: EMSA; co-incubation; upper co-binding band, supershift series with anti-HA and/or anti-FLAG; 20 mM Tris-HCl pH 8.0, 100 mM NaCl, 100 ug/mL BSA, 1 mM EDTA, 1 mM DTT, 0.1% NP-40; 20 min on ice (supershift 30 min at room temperature), 200 ng Cy5 probe; 6%; settings: protein: recombinant;recombinant; tags: N-terminal 6xHis, C-terminal HA (pSJ6094);N-terminal 6xHis, C-terminal FLAG (pSJ1107); copies: 1;1; label: Cy5 on forward strand; blunt

T1 sequence (Q21305 whole entry, chain 1 of 2): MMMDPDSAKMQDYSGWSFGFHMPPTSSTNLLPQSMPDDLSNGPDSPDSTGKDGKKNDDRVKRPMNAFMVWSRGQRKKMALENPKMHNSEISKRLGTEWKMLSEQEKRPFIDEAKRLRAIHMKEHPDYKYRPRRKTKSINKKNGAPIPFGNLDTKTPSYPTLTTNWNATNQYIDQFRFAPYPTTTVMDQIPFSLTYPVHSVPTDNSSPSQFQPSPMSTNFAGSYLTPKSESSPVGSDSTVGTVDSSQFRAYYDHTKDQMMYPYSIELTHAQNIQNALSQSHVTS
T1 sequence (Q10666 181-281, chain 2 of 2): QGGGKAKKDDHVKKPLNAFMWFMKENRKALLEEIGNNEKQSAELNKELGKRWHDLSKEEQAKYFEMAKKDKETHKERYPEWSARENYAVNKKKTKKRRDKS
Chain of SOX-2;HMG-POP-1 (Q21305 whole entry, chain 1 of 2): as the sequence (Q21305 whole entry, chain 1 of 2) above
Chain of SOX-2;HMG-POP-1 (Q10666 181-281, chain 2 of 2): as the sequence (Q10666 181-281, chain 2 of 2) above

Row | Binder | binding result [1] | binding result [2] | binding result [3]
1 | B1 | binds | binds | –
2 | B2 | – | – | binds
